Reference: patent US20210093714A1, “Combination and method for inhibiting the cancer cells” (NATIONAL TAIWAN UNIVERSITY, priority 2013, published 2021)

What was measured:
EGFR [1] = target: T1, EGFR (Homo sapiens, UniProt P00533); test: FACS of membranous association between CCN2 and EGFR; assay type: cell-based; settings: CL1-5 and A549; rCCN2 100 ng/mL; FIG. 2B
T1 construct: endogenous in cells; host or cells: CL1-5 and A549 human lung adenocarcinoma cell lines
Procedure: (§1) After washing, cells were stained with an FITC-labelled goat anti-rabbit secondary antibody (Santa Cruz Biotechnology) for 30 min in the dark. Analysis was then conducted with an FACS Calibur cytometer (Collaborative Biomedical, BD Biosciences).
In this embodiment, the concentration thereof is about 100 ng/mL.

EGFR [2] = test: Immunoprecipitation and in vitro binding assay of CCN2 and EGFR; design: species or system human; settings: A549; FIG. 2C
Procedure: CCN2 transfectants were seeded overnight and incubated in serum-free media for 24 h. For immunoprecipitations, cells were lysed in an RIPA buffer (150 mM NaCl, 50 mM Tris-base, 5 mM EDTA, 1% NP-40, and 0.25% deoxycholate; pH 7.4). Protein concentrations were determined using the BCA protein assay kit (Pierce, Rockford, Ill., USA). Lysate was incubated for 2 h at 4[…] with gentle rotation with rabbit polyclonal antibodies for human EGFR, CCN2, or Src immobilized onto protein A—sepharose beads (Santa Cruz Biotechnology, Santa Cruz, Calif., USA). Beads were washed twice with an IP buffer (137 mM NaCl, 2.7 mM KCl, 1 mM MgCl2, 1 mM CaCl2, 1% NP-40, 10% glycerol, 1 mg/ml bovine serum albumin, and 20 mM Tris; pH 8.0), boiled in a sodium dodecyl sulfate-polyacrylamide gel electrophoresis (SDS-PAGE) sample buffer, and centrifuged (12000×g, 4° C. for 15 min).
The recombinant proteins rCCN2 (BioVendor Com. Heidelberg, Germany), rEGFR, and rEGF (R&D Techne Corporation) ([…]) were added in binding buffer (50 mM sodium phosphate, pH 7.5, 500 mM NaCl, and I% Nonidet P-40) and incubated with gentle rotation at 4° C. for 2 h. Thereafter, crosslinks were reversed by boiling in an SDS-PAGE sample buffer (containing 0.1M dithiothreitol (DTT)) before loading on SDS-PAGE gels for immunoblotting analysis. […]

ERK = test: Western blot of ERK phosphorylation; assay type: cell-based, human; settings: CL1-5, A549 and CL1-0/siCCN2; with increasing time; FIG. 3A
Procedure: (§2) Proteins ([…]) were separated by SDS-PAGE and transferred to a polyvinylidene difluoride membrane (Immobilon-P membrane; Millipore) by electrotransfer. The blot was blocked in a solution of 5% skim milk and 0.1% Tween 20 in PBS. Thereafter, membrane-bound proteins were probed with the following primary antibodies: CCN2, DAPK, phosphorylated ERK, ERK-1, phosphorylated Akt, Akt, TrkA, phosphorylated-Src, Src, b-actin, a-tubulin (Santa Cruz Biotechnology), p-EGFR, and EGFR (Cell Signaling Technology, Danvers, MA, USA). The membrane was washed and then incubated with HRP-conjugated secondary antibodies for 30 min. Enhanced chemiluminescence reagents (Amersham Pharmacia Biotech, Piscataway, N.J., USA) were employed to depict the protein bands on membranes. The light was captured on Kodak X-Omat Blue autoradiography film (PerkinElmer Life Sciences, Boston, Mass., USA).
This embodiment focuses on the effect of CCN2 on the EGFR-induced signaling pathways. At first, the effect of exogenous CCN2(rCCN2) on the MAPK/AKT signaling pathways in the lung adenocarcinoma cell lines, CL1-5, A549 and CL1-0/siCCN2 was observed by western blot analysis, the results shown in FIG. 3A.

EGFR [3] = target: T1, EGFR; test: Western blot of EGFR ubiquitination; assay type: cell-based; settings: CL1-5; FIG. 4C
Procedure: as §2
(§3) CCN2 transfectants were seeded overnight and incubated in serum-free media for 24 h. For immunoprecipitations, cells were lysed in an RIPA buffer (150 mM NaCl, 50 mM Tris-base, 5 mM EDTA, 1% NP-40, and 0.25% deoxycholate; pH 7.4). Protein concentrations were determined using the BCA protein assay kit (Pierce, Rockford, Ill., USA). […]

β-pix/c-Cbl complex = test: Immunoprecipitation/western blot of β-pix/c-Cbl complex and β-pix phosphorylation; assay type: cell-based, human; settings: CL1-5; 0 to 60 minutes; FIG. 4G
Procedure: as §2, §3

[4] = test system: lung adenocarcinoma cell line, CL1-5; test: In vivo anoikis, high-frequency ultrasonic imaging, s.c. CL1-5; settings: nude mice, rCCN2 i.p. 1 mg/kg per day, FIG. 5F
Text: Mice were anesthetized with isoflurane inhalation, and biofluorescence images were photographed with a CCD camera (IVIS; Xenogen Corporation, Caliper Life Sciences, Hopkinton, Mass., USA) at specific times. Imaging times ranged from 1 to 60 s, depending on the amount of fluorescence activity. Biofluorescence from the region of interest (ROI) was defined manually, and the data were expressed as photon flux (photons/s/cm^2/steradian). Background photon flux was defined using an ROI from a mouse that was not given an […]. injection of cancer cells. All biofluorescence data were collected and analyzed using IVIS. Celltracker dye was purchased from Molecular Probes, Invitrogen Corporation.
Next, the effect of rCCN2 on anoikis in the lung adenocarcinoma cell line, CL1-5, (in vivo) was observed by high-frequency ultrasonic imaging, the results shown in FIG. 5F(top right indicated as the amplification view of the yellow squares). In this embodiment, the lung adenocarcinoma cell line, CL1-5, was injected into the s.c. region of nude mice and the mice was treated i.p. either with rCCN2 (1 mg/kg per day) or a control solution (citrate buffer), and anoikis in the lung adenocarcinoma cell line, CL1-5,(in vivo) was observed by high-frequency ultrasonic imaging.

wild-type EGFR = test: Western blot of EGFR expression, H1299 wild-type EGFR; assay type: cell-based, human; settings: H1299 lung adenocarcinoma cell lines (wild-type EGFR); 0 minutes to 4 hours; FIG. 7
Procedure: as §2
(§4) First, the effect of rCCN2 on the wild-type EGFR […] lung adenocarcinoma cell line, the mutated-type EGFR H1299 lung adenocarcinoma cell line, and the mutated-type EGFR H1975 lung adenocarcinoma cell line was observed by western blot analysis, the results shown in FIG. 7(Cell lysates of H1299 transfectants or H1975 cells were immunoblotted with anti-EGFR).

[5] = test system: mutated-type EGFR (L858R and T790M); test: Western blot of EGFR expression, H1975; assay type: cell-based, human; settings: 0 to 4 hours, FIG. 7
Procedure: as §2, §4

[6] = target: T2, Epidermal growth factor receptor (EGFR) (human, UniProt P00533 25-1210); test: FACS on CL1-5 and A549 cells (legend of FIG. 2B)
T2 construct: whole, on cells; FACS and immunoprecipitation used EGFR in or on cells
Procedure: as §1

physical association between CCN2 and EGFR (EGFR [2]): there is a physically association
EGFR ubiquitination degree (EGFR [3]): increase the EGFR ubiquitination degree
binding result [6]: binds
B1: Connective tissue growth factor (CCN2), wild-type full length (ligand, human, UniProt P29279 27-349, looked up)
chain: QNCSGPCRCPDEPAPRCPAGVSLVLDGCGCCRVCAKQLGELCTERDPCDPHKGLFCHFGSPANRKIGVCTAKDGAPCIFGGTVYRSGESFQSSCKYQCTCLDGAVGCMPLCSMDVRLPSPDCPFPRRVKLPGKCCEEWVCDEPKDQTVVGPALAAYRLEDTFGPDPTMIRANCLVQTTEWSACSKTCGMGISTRVTNDNASCRLEKQSRLCMVRPCEADLEENIKKGKKCIRTPKISKPIKFELSGCTSMKTYRAKFCGVCTDGRCCTPHRTTTLPVEFKCPDGEVMKKNMMFIKTCACHYNCPGDNDIFESLYYRKMYGDMA
notes: also called Recombinant CCN2; exogenous CCN2
detection of membranous CCN2 (EGFR [1]): enhanced the detection of membranous CCN2
phosphorylation of ERK (p-ERK1/2) (ERK): gradually reduce the phosphorylation of ERK
formation of β-pix/c-Cbl complex (β-pix/c-Cbl complex): gradually reduce the formation of β-pixie-Chi complex
β-pix phosphorylation (β-pix/c-Cbl complex): reduces β-pix phosphorylation
anoikis in vivo [4]: clearly appeared anoikis
expression of EGFR (wild-type EGFR): inhibit the expression of EGFR more significantly
expression of EGFR [5]: inhibit the expression of EGFR more significantly
